Molecular target: the molecule itself
Test: cross-linking

B1: S. mutans ClpX with a C-terminal hexahistidine tag (enzyme)
chain: not shown
  stoichiometry N: 6

— publication doi:10.1101/2025.02.28.640611 (bioRxiv, 2025)
